Experiments:
CDK5 = target: T1, CDK5 (Homo sapiens, UniProt Q00535); experiment: Chimera-induced degradation of intracellular target CDK5, Western blot; type: cell-based; settings: T24 cells; 48 hours; compared to PEP2 and P1
T1 construct: a CDK5-high-expressing cell line—T24 human bladder cancer cells—was selected for the experiment; endogenous in cells; host or cells: T24
Description: (§1) In this Example, a CDK5-high-expressing cell line—T24 human bladder cancer cells—was selected for the experiment. The cells were plated one day before the administration of chimeras. Each of PEP2, P1 and PEP-C4-P1 was diluted in complete medium and incubated with the cells for 48 hours. Subsequently, the cells were lysed using a lysis buffer, total proteins were extracted, and protein concentration was quantified using a BCA protein assay kit (Thermo Fisher). Proteins were separated by 10% SDS-PAGE and transferred onto polyvinylidene fluoride (PVDF) membranes via electroblotting. The membranes carrying the proteins were blocked with 5% skim milk at room temperature for 1 hour. After removing the milk, the membranes were incubated with a primary antibody overnight at 4° C. on a shaker. The next day, the membranes were quickly immersed in TBST and washed three times, followed by incubation with a secondary antibody at room temperature for 1 hour. Finally, the proteins were detected and recorded using a chemiluminescence reagent and a Tanon chemiluminescence imaging system, and quantitative analysis was performed on the proteins using ImageJ. All primary antibodies used in this Example were an anti-CDK5 antibody.

EGFR = target: T2, EGFR (Homo sapiens, UniProt P00533); experiment: Chimera-induced degradation of EGFR, Western blot; type: cell-based; settings: 48 hours
T2 construct: two EGFR-high-expressing cell lines-A431, and A549-were selected for the experiment; endogenous in cells; host or cells: A431, A549
Description: as §1, with “two EGFR-high-expressing” for “a CDK5-high-expressing”, “lines-A431, and A549-were” for “line—T24 human bladder cancer cells—was”, “Each of PEP2, P1 and PEP-C4-P1 was diluted in complete medium and incubated with the cells for 48 hours.” left out, “membranes” for “membranes carrying the proteins”, “anti-EGFR” for “anti-CDK5”

T1 sequence (Q00535 whole entry): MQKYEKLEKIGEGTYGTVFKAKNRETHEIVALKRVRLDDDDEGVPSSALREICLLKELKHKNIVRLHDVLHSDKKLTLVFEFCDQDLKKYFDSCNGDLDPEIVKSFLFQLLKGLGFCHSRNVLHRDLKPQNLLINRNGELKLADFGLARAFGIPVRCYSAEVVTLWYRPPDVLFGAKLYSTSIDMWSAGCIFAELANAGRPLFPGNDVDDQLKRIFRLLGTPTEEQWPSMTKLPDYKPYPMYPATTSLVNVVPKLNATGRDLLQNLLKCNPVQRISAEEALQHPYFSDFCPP

PEP2-C4-P1: CDK5-binding polypeptide PEP2 (RRPPRSPDHKRYFRDKE) fused at C-terminus to C4-P1, SEQ ID NO: 136 (RRPPRSPDHKRYFRDKEYGRKKRRQRRRSFHDDSDEDLLHI)
degradation of CDK5 (Western blot, FIG. 15) (CDK5): obvious degradation effect on CDK5

PEP1-C3-P1: EGFR-binding polypeptide PEP1 (LARLLT) fused at C-terminus to C3-P1, SEQ ID NO: 135 (LARLLTRRRRKSFHDDSDEDLLHI)
degradation of EGFR (Western blot, FIG. 6C) (EGFR; A431 cells): obvious degradation effect on the membrane receptor EGFR | degradation of EGFR (Western blot, FIG. 6C) (EGFR; A549 cells): obvious degradation effect on the membrane receptor EGFR

PEP1-P1: EGFR-binding polypeptide PEP1 (LARLLT) fused at C-terminus to P1, SEQ ID NO: 134 (LARLLTSFHDDSDEDLLHI)
degradation of EGFR (Western blot, FIG. 6C) (EGFR; A431 cells): obvious degradation effect on the membrane receptor EGFR | degradation of EGFR (Western blot, FIG. 6C) (EGFR; A549 cells): obvious degradation effect on the membrane receptor EGFR

— patent publication US20260274986A1, “USE OF CHIMERA IN TARGETED PROTEIN DEGRADATION TECHNOLOGY” (SUN YAT-SEN UNIVERSITY, priority 2023, published 2026)
